One substance from paper PMC6020246, “Molecular characterization of a novel chitinase CmChi1 from Chitinolyticbacter meiyuanensis SYBC-H1 and its use in N-acetyl-D-glucosamine production” (Biotechnology for Biofuels, 2018) can be followed below.

In the data set the test system is T1, CC(=O)N[C@H]1[C@H](Oc2ccc([N+](=O)[O-])cc2)O[C@H](CO)[C@@H](O[C@@H]2O[C@H](CO)[C@@H](O)[C@H](O)[C@H]2NC(C)=O)[C@@H]1O.
T1 construct: full length 658 residues with predicted signal peptide (residue 23) kept, C-terminal His6 (pET-28a(+)), E. coli BL21(DE3); peptides AATPTPVSAT, EDYKVLKNA, LTFINYAFGNVYQK
Nature of the data set: p-nitrophenol release, Lineweaver-Burk plot. The format is biochemical, Chitinolyticbacter meiyuanensis. The conditions noted are these: 50 mM sodium citrate pH 5.2, 50 °C, 5 min, apparent, text b64 prints the same number as mg/mL, table unit agrees with printed kcat/Km 73.5 mL/s/μmol. From the text: p-nitrophenol release, Lineweaver-Burk plot on CmChi1

CmChi1 (Chitinolyticbacter meiyuanensis), sequence (chain, as listed by the source): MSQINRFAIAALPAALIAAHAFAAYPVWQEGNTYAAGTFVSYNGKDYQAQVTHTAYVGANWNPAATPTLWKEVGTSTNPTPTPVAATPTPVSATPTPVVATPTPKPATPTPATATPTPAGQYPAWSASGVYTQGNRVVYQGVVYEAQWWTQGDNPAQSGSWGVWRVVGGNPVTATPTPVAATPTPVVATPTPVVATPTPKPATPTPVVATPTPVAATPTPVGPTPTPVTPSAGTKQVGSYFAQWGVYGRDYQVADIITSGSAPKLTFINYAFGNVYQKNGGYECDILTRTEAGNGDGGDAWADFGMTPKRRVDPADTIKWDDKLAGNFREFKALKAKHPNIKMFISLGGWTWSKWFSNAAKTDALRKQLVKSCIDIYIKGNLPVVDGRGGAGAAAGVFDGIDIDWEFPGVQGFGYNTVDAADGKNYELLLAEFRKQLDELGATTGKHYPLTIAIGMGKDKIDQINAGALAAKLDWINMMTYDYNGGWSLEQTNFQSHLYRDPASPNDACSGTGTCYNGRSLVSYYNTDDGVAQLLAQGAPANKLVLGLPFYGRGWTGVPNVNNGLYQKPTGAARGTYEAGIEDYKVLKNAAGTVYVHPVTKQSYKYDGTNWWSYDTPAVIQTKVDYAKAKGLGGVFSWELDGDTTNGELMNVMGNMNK

In the case of “CmChi1 (Chitinolyticbacter meiyuanensis)”, the Km (commonly the substrate concentration at which the rate is half of its maximum) was 580 ± 40 µM, the Vmax is on record as 108.6 ± 3.3 (μmol/min/L), the kcat (usually the maximal rate divided by the concentration of active sites) came out at 42.5 ± 1.4 s⁻¹ and the kcat/Km is listed as 73.5 ± 2.6 (mL/s/μmol).
